48 molecules from patent US20100136580A1 (Genentech, published 2010) can be followed below.

In this test the target is T1, GST-Dvl2PDZ fusion protein (human, UniProt O14641 248-364).
T1 construct: range 248-364; Made with the pGEX E. coli expression system; also called GST-PDZ fusion protein; not shown: glutathione S-transferase (GST) encoded by plasmid pGEX
T1 sequence (looked up): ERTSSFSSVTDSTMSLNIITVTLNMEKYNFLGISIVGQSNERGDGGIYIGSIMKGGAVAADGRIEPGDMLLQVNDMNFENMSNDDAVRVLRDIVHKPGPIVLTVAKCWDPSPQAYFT
Nature of the test: phage display selection on GST-Dvl2PDZ. As for the experimental part:
The libraries were cycled through rounds of binding selection with a GST-Dvl2PDZ fusion protein coated on 96-well Maxisorp immunoplates as the capture target. Phage were propagated in E. coli XL1-blue with M13-KO7 helper phage and 10 μM IPTG. After four rounds of binding selection, individual phage clones were analyzed in a high-throughput phage ELISA, and positive clones were subjected to DNA sequence analysis.
We used decapeptide libraries fused to the C-terminus or N-terminus of the phage coat protein. The library contained NNK degenerate codons that encoded all 20 natural amino acids. The possible occurrence of amber stop codons in the degenerate codon also provided for the display of shorter peptides for the C-terminal library. Each library was cycled through four rounds of binding selection with immobilized GST-Dvl2PDZ fusion protein as the capture target.

TWMDYGWLDQGG [SEQ ID NO 87]: the binding result is recorded as “binds”.
As to VKYYGYIDGGG [SEQ ID NO 113], the binding result is recorded as “binds”.
With GGRMALGWLDGGG [SEQ ID NO 88], the binding result was “binds”.
In the case of SHWKYYGWIDGGG [SEQ ID NO 96], the binding result is “binds”.
On to VNLVEYGWVDGGG [SEQ ID NO 116], for which the binding result is “binds”.
On to TRFTNYGWLDGGG [SEQ ID NO 91], for which the binding result is recorded as “binds”.
Turning to WISGWIDYPP [SEQ ID NO 95], the binding result was “binds”.
As to SWETLWSDFP [SEQ ID NO 117], the binding result is listed as “binds”.
Consider QSHTCYGWIDGGG [SEQ ID NO 81], for which the binding result was “binds”.
Consider EVLWSDFPPM [SEQ ID NO 128], for which the binding result was “binds”.
The result for ITDYGWVDGPG [SEQ ID NO 97] reads “binds”; that for MVDYGWIDYWG [SEQ ID NO 112], “binds”; that for VKYYGYIDGGG [SEQ ID NO 82], “binds”.
Take LTMYGWIDGKG [SEQ ID NO 115]: the binding result is recorded as “binds”.
As for LKFYGWIDGGG [SEQ ID NO 92], the binding result is “binds”.
With SHWKYYGWIDGGG [SEQ ID NO 101], the binding result is reported as “binds”.
SIVLWSDIPS [SEQ ID NO 127]: the binding result was “binds”.
As to AMFHEYGWIDGGG [SEQ ID NO 110], the binding result was “binds”.
As to SLQWYGWIDSGG [SEQ ID NO 93], the binding result is “binds”.
For LKFYGWIDGGG [SEQ ID NO 106], the binding result was “binds”.
For SMVLWWDVPS [SEQ ID NO 124], the binding result is recorded as “binds”.
As for SIVLWSDIPS [SEQ ID NO 121], the binding result is “binds”.
Regarding SIVLWTDIPS [SEQ ID NO 123], the binding result was “binds”.
Regarding TDYGWIDYPP [SEQ ID NO 90], the binding result is “binds”.
Regarding YTKYYGWIDTGG [SEQ ID NO 104], the binding result was “binds”.
VSLINYGWIDGGG [SEQ ID NO 107]: the binding result was “binds”.
As to WVEYGWIDSGG [SEQ ID NO 83], the binding result is on record as “binds”.
Turning to SIIYYGWLDGGG [SEQ ID NO 99], the binding result was “binds”.
Take FTWRDYGWLDGGG [SEQ ID NO 84]: the binding result is reported as “binds”.
As for VSLINYGWIDGGG [SEQ ID NO 94], the binding result is given as “binds”.
Take IKLVQYGWIDGGG [SEQ ID NO 111]: the binding result is given as “binds”.
With YTDYGWIDQSG [SEQ ID NO 103] the entry was “binds”; with TNLLWSDIPP [SEQ ID NO 125], “binds”; with EMITLWSDLP [SEQ ID NO 129], “binds”.
Regarding QQLLWSDIP [SEQ ID NO 120], the binding result is recorded as “binds”.
Regarding GFLTHYGWLDGGG [SEQ ID NO 109], the binding result is “binds”.
In the case of IKLVQYGWIDGGG [SEQ ID NO 108], the binding result is recorded as “binds”.
Regarding TLLHFYGYIDGGG [SEQ ID NO 85], the binding result is listed as “binds”.
As for HITVDYGWIDGGG [SEQ ID NO 114], the binding result is reported as “binds”.
In the case of WWVDYGFVDGGG [SEQ ID NO 105], the binding result is given as “binds”.
As to AHTTFYGWIDGGG [SEQ ID NO 100], the binding result was “binds”.
Turning to NEQLLWTDIP [SEQ ID NO 118], the binding result is recorded as “binds”.
For the molecule EVLWSDFPPM [SEQ ID NO 119], the binding result is reported as “binds”.
Regarding EVLWADFPPM [SEQ ID NO 122], the binding result was “binds”.
For the molecule YTKYYGWIDTGG [SEQ ID NO 86], the binding result is “binds”.
With MWYVDYGWVDGGG [SEQ ID NO 98] the entry was “binds”; with AWIVDYGWIDGGG [SEQ ID NO 89], “binds”.
In the case of AWIVDYGWIDGGG [SEQ ID NO 102], the binding result is recorded as “binds”.
